Data: PMC8396345

Tests used:
[1] = system: norovirus P-domain (Norovirus GII.4); conditions: FRA: 1 nM 32P-aptamer, 0-1500 nM VLP, 60 min, each aptamer's original selection buffer (M1, M6-2, SMV19, SMV21: PBS pH 7.4; others in Table S1, not in material); cited from earlier work
[2] = system: norovirus GII.3 VLP (VP1) (Norovirus GII.3); experiment: filter binding; conditions: FRA: 1 nM 32P-aptamer, 0-1500 nM VLP, 60 min, each aptamer's original selection buffer (M1, M6-2, SMV19, SMV21: PBS pH 7.4; others in Table S1, not in material)
[3] = system: norovirus P-domain (Norovirus GII.4); experiment: filter binding; conditions: FRA: 1 nM 32P-aptamer, 0-1500 nM VLP, 60 min, each aptamer's original selection buffer (M1, M6-2, SMV19, SMV21: PBS pH 7.4; others in Table S1, not in material)
[4] = system: norovirus GII.4 Sydney VLP (VP1) (Norovirus GII.4 Sydney); experiment: filter binding; conditions: FRA: 1 nM 32P-aptamer, 0-1500 nM VLP, 60 min, each aptamer's original selection buffer (M1, M6-2, SMV19, SMV21: PBS pH 7.4; others in Table S1, not in material)
[5] = system: norovirus GII.4 New Orleans VLP (VP1) (Norovirus GII.4 New Orleans); experiment: filter binding; conditions: FRA: 1 nM 32P-aptamer, 0-1500 nM VLP, 60 min, each aptamer's original selection buffer (M1, M6-2, SMV19, SMV21: PBS pH 7.4; others in Table S1, not in material)
[6] = system: norovirus GII.2 VLP (VP1) (Norovirus GII.2); conditions: FRA: 1 nM 32P-aptamer, 0-1500 nM VLP, 60 min, each aptamer's original selection buffer (M1, M6-2, SMV19, SMV21: PBS pH 7.4; others in Table S1, not in material); cited from earlier work
[7] = system: norovirus GI.7 VLP (VP1) (Norovirus GI.7); experiment: filter binding; conditions: FRA: 1 nM 32P-aptamer, 0-1500 nM VLP, 60 min, each aptamer's original selection buffer (M1, M6-2, SMV19, SMV21: PBS pH 7.4; others in Table S1, not in material)

| Sequence | Kd [1] [µM] | Kd [2] [µM] | binding signal [3] [%] | Kd [4] [µM] | Kd [5] [µM] | Kd [6] [µM] | Kd [7] [µM] |
| --- | --- | --- | --- | --- | --- | --- | --- |
| GAAATTGGGTTCGGGTTTGGGTTGGGATTACTTAGCGATG [Buf-2] | 0.017 | 0.465 | 100 | 0.241 | 0.351 | – | – |
| CCATGTTTTGTAGGTGTAATAGGTCATGTTAGGGTTTCTG [SMV21] | – | 0.464 | – | 1.25 | 1.78 | 0.101 | – |
| CACCAGTGTGTTGAGGTTTGAGCACACTGATAGAGTGTCA [SMV19] | – | – | – | – | 9.34 | 0.191 | – |
| GCTAGCGAATTCCGTACGAAGGGCGAATTCCACATTGGGCTGCAGCCCGGGGGATCC [AG3] | – | – | – | 0.313 | 1.03 | – | – |
| TGGGAAGAGGTCCGGTAAATGCAGGGTCAGCCCGGAGAG [M6-2] | – | – | – | 1.13 | 0.928 | – | – |
| TGTTTATGGGGATAAACGTATCTAATTCGTGTACTAATCA [M1] | – | – | – | 0.388 | 0.963 | – | – |
| GTCTGTAGTAGGGAGGATGGTCCGGGGCCCCGAGACGACGTTATCAGGC [Beier] | – | 0.115 | – | 0.071 | 0.105 | – | 0.063 |
